Patent US20050244868A1

Experiments:
[1] = molecular target: CG55069 (Ten-M3), endogenous on human tumour, lymphoma and leukemia cell lines (human) (UniProt Q9P273); assay: flow cytometry on SU-DHL-4 cells, negative control antibody
[2] = molecular target: CG55069 (Ten-M3), endogenous on human tumour, lymphoma and leukemia cell lines (human) (UniProt Q9P273); assay: flow cytometry on DEL cells, negative control antibody
[3] = molecular target: CG55069 (Ten-M3), endogenous on human tumour, lymphoma and leukemia cell lines (human) (UniProt Q9P273); assay: flow cytometry on Karpas 299 cells, negative control antibody
[4] = molecular target: CG55069 (Ten-M3), endogenous on human tumour, lymphoma and leukemia cell lines (human) (UniProt Q9P273); assay: flow cytometry on SR cells, negative control antibody
[5] = molecular target: CG55069 (Ten-M3), endogenous on human tumour, lymphoma and leukemia cell lines (human) (UniProt Q9P273); assay: flow cytometry on MOLT-4 cells, negative control antibody
[6] = molecular target: CG55069 (Ten-M3), endogenous on human tumour, lymphoma and leukemia cell lines (human) (UniProt Q9P273); assay: flow cytometry on SUP-M2 cells, negative control antibody
[7] = molecular target: CG55069 (Ten-M3), endogenous on human tumour, lymphoma and leukemia cell lines (human) (UniProt Q9P273); assay: flow cytometry on MV4-11 cells, negative control antibody
[8] = molecular target: CG55069 (Ten-M3), endogenous on human tumour, lymphoma and leukemia cell lines (human) (UniProt Q9P273); assay: flow cytometry on CCRF-CEM cells, negative control antibody

Sequence of UniProt Q9P273 (Q9P273 other isoform, or with tags, fused parts or gaps): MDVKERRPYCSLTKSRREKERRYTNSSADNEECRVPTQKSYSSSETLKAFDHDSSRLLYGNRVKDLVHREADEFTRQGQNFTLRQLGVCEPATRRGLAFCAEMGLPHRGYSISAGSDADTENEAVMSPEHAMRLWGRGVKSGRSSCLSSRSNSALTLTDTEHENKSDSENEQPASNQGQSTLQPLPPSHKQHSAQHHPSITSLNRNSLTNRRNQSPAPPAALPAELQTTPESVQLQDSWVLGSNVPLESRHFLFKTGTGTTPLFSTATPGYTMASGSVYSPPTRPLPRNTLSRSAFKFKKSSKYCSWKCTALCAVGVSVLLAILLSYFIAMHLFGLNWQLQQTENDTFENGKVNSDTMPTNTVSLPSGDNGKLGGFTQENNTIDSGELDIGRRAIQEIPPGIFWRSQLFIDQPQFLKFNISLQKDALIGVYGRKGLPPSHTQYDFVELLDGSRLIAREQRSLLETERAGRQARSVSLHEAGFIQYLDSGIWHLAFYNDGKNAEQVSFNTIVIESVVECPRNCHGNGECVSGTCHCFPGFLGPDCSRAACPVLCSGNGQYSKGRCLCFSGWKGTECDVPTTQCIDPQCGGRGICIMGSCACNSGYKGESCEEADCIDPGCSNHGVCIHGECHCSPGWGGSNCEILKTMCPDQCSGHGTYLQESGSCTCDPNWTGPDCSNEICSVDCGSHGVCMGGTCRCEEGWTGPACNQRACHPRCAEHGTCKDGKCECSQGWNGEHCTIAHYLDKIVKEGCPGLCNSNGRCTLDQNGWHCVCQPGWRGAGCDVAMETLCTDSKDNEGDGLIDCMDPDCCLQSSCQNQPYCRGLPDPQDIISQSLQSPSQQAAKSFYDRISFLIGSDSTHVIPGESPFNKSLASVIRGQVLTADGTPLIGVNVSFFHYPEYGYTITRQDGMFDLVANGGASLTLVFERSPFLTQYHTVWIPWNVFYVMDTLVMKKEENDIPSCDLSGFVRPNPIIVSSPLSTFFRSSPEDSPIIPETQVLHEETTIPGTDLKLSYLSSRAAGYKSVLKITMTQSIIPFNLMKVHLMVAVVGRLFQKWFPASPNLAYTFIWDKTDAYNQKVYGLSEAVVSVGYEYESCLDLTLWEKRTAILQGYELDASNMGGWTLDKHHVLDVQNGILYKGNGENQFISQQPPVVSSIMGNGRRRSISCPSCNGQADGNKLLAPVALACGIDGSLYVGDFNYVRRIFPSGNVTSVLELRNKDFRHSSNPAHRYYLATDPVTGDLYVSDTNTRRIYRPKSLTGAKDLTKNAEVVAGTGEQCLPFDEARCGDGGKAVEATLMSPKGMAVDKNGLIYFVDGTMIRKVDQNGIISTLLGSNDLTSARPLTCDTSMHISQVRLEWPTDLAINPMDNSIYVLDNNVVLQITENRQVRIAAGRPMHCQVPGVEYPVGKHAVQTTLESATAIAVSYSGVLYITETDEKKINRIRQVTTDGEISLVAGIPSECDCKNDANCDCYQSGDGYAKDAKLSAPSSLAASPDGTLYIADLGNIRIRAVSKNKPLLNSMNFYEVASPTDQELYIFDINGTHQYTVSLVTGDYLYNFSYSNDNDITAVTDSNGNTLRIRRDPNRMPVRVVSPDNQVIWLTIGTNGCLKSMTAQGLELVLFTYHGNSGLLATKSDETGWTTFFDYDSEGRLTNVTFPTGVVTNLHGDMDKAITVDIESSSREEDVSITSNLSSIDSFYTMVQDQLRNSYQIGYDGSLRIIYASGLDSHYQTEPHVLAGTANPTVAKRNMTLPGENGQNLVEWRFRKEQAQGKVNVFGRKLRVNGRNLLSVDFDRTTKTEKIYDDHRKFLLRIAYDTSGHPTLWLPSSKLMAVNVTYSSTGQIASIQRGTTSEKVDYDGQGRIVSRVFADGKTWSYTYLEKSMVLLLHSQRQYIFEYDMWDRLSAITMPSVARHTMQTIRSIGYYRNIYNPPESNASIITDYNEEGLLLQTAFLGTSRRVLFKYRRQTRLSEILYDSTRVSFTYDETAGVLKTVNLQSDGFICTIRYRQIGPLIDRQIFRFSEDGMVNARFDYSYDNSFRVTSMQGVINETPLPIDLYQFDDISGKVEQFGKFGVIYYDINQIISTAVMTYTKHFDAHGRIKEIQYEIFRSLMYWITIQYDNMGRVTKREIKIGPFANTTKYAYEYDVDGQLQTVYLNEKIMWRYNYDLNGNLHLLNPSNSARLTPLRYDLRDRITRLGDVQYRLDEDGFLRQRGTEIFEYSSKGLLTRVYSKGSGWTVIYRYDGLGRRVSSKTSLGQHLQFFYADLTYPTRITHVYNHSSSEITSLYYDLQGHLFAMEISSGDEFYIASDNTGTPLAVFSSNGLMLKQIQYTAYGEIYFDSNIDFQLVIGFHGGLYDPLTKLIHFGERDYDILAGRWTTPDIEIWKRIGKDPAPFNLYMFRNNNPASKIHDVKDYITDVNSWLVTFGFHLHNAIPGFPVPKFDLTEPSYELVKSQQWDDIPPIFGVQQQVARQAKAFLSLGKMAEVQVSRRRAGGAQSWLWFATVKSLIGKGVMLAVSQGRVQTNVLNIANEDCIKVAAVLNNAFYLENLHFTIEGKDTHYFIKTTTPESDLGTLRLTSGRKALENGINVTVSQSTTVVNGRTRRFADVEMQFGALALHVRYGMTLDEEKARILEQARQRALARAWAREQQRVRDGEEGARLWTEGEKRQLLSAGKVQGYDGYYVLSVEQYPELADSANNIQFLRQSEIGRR

- Geo Mean Ratio [1]: 2.38
- Geo Mean Ratio [2]: 7.41
- Geo Mean Ratio [3]: 5.08
- Geo Mean Ratio [4]: 4.29
- Geo Mean Ratio [5]: 4.13
- Geo Mean Ratio [6]: 6.13
- Geo Mean Ratio [7]: 90.7
- Geo Mean Ratio [8]: 4.22
Substance: Rabbit negative (control antibody)
